Laboratory results as given in patent US20190092852A1 (Genentech, published 2019).
Like-named read-outs stand apart in the source and are kept apart here. Values belong to the binder of their own block, whether it stands above or below them.

B2: cyno IL-33 N-His (ligand)
chain: MGSSHHHHHHSSGLVPRGSHMSITGISPITESLASLSTYNDQSITFALEDESYEIYVEDLKKDKKKDKVLLSYYESQHPSSESGDGVDGKMLMVTLSPTKDFWLQANNKEHSVELHKCEKPLPDQAFFVLHNRSFNCVSFECKTDPGVFIGVKDNHLALIKVDYSENLGSENILFKLSET
B3: human IL-33 (R&D Systems, #3625-IL-010/CF) (ligand, UniProt O95760 112-270, looked up)
chain: SITGISPITEYLASLSTYNDQSITFALEDESYEIYVEDLKKDEKKDKVLLSYYESQHPSNESGDGVDGKMLMVTLSPTKDFWLHANNKEHSVELHKCEKPLPDQAFFVLHNMHSNCVSFECKTDPGVFIGVKDNHLALIKVDSSENLCTENILFKLSET

Legend:
[1] = target: B3; experiment: cell-based or functional assay
[2] = target: T1, cynomolgus monkey N-terminal 6-His-tagged and C-terminal Avi-tagged IL-33 (S112-T270) (cynomolgus monkey); experiment: cell-based or functional assay
T1 chain: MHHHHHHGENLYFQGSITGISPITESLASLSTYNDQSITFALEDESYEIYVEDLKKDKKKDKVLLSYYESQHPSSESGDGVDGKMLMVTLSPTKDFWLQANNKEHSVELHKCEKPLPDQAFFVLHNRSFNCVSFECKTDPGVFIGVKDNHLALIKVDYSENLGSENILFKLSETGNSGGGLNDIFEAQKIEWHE

[3] = target: B3; experiment: cell-based or functional assay; remark: listed apart in the source
[4] = target: B3; experiment: cell-based or functional assay; remark: listed apart in the source
[5] = target: B3; experiment: cell-based or functional assay; remark: listed apart in the source
[6] = target: B3; experiment: cell-based or functional assay; remark: listed apart in the source
[7] = target: B3; experiment: cell-based or functional assay; remark: listed apart in the source
biotinylated cyno IL-33 = target: T2, biotinylated cyno IL-33 (cynomolgus monkey, UniProt A0A2K5W3I1 112-269, biotin-labeled with EZ-LINK NHS-PEG4-Biotin); experiment: competitive ELISA, biotin-cyIL-33 to coated hST2-Fc
T2 construct: also called biotin-cyIL-33
T2 sequence: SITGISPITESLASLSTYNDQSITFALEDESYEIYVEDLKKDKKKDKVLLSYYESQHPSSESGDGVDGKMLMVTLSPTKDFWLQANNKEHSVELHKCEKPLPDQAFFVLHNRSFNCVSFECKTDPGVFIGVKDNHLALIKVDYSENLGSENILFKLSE
Outline: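 Recombinant human ST2-Fc coated at 1 μg/ml; biotin-IL-33 (final 20 pM human, 45 pM cyno) premixed 1 h RT with serially diluted antibody (0–300 nM final), then bound to ST2-Fc 1 h RT. Streptavidin-polyHRP/TMB, A450; IC₅₀ from four-parameter fit, max blocking relative to IL-33-alone signal minus background.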

biotinylated human IL-33 = target: T3, biotinylated human IL-33 (human, UniProt O95760 112-270, biotin-labeled with EZ-LINK NHS-PEG4-Biotin); experiment: competitive ELISA, biotin-huIL-33 to coated hST2-Fc
T3 construct: also called biotin-huIL-33
T3 sequence (looked up): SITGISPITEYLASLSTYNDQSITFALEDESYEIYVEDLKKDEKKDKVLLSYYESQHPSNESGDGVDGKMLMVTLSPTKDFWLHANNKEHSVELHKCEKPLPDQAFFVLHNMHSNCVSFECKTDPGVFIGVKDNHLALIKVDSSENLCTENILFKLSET
Method: The ability of the anti-IL-33 antibody 10C12.38.H6.87Y.58I IgG4 and each anti-IL-33 antibody listed in Table 5 (RG1-RG20) to block either human IL-33 or cyno IL-33 binding to human ST2 receptor was tested in a competitive binding ELISA. Briefly, 1 μg/ml of recombinant human ST2-Fc chimera protein prepared in coating buffer (50 mM sodium carbonate, pH 9.6) was coated on a 384-well MAXISORP® plate (Nalgene Nunc International; Rochester, N.Y.) and incubated overnight at 4° C. On the next day, non-specific binding was blocked with PBS containing 0.5% (w/v) solution of bovine serum albumin (BSA). Fixed concentrations of biotinylated human or cyno IL-33 prepared in assay buffer (25 mM PBS, pH 7.2, 0.1% BSA, 0.05% TWEEN®-20) were mixed with an equal volume of serially-diluted anti-IL-33 antibodies or assay buffer alone and incubated for 1 h at room temperature. The final assay concentrations of biotinylated human IL-33 or cyno IL-33 were 20 pM and 45 pM, respectively, and the final assay concentration of each antibody ranged from 0-300 nM. The pre-mixed solutions were added to the ST2-Fc coated plate and incubated for 1 h at room temperature. The binding of biotinylated IL-33 to coated ST2-Fc was detected by the sequential addition of Streptavidin Poly-HRP80 (Fitzgerald; Buckinghamshire, UK) and 3,3′,5,5′-tetramethyl benzidine (TMB) Microwell Peroxidase Substrate System (KPL; Gaithersburg, Md.). The absorbance (450 nm) was recorded using a […] ASCENT® plate reader (Thermo Scientific; Rockford, Ill.). The binding activity (%) of biotin-IL-33 to ST2 in the presence of anti-IL-33 was plotted as a function of antibody concentration. The data generated were fitted to a four-parameter equation to determine IC₅₀ values for each antibody (FIGS. 25A and 25B) using Prism software (Graphpad Software; La Jolla, Calif.). The maximum blocking (%) of each antibody was calculated as the ratio of the reduction in signal measured in the presence of antibody relative to the difference between the signal with IL-33 alone and background measurements.

[8] = target: T4, human ST2L on HEK-BLUE IL-33/IL-1beta cells (human, UniProt Q01638 19-556); experiment: cell-based or functional assay
T4 sequence: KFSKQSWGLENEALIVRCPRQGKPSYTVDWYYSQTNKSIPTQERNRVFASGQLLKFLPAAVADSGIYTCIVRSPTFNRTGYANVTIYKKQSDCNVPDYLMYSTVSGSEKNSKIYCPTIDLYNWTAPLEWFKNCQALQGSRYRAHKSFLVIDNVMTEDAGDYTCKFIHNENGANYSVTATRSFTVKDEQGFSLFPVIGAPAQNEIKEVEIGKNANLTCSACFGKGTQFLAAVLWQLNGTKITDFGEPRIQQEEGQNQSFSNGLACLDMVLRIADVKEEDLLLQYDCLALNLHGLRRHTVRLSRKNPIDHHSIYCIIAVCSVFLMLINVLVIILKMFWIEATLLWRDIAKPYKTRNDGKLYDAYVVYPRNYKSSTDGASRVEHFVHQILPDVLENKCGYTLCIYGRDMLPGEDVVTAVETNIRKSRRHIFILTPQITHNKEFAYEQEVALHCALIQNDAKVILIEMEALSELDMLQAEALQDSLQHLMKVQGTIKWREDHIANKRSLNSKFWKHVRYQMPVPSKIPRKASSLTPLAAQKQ

[9] = target: T4, human ST2L on HEK-BLUE IL-33/IL-1beta …; experiment: cell-based or functional assay; remark: listed apart in the source
[10] = target: B3; experiment: SPR Biacore T200, 25 C
Outline: (§1)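 Antibodies captured via anti-Fc on CM5 chip; IL-33 injected at 3.7–100 nM (three-fold series), 4 min association, 10 min dissociation, 30 μl/min, ADA pH 7.4 buffer with 0.15 M NaCl, EDTA, Tween-20, at 25 °C or 37 °C. KD = koff/kon from 1:1 Langmuir fit; t1/2 = ln(2)/(60*koff).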

cyno IL-33 N-His [11] = target: B2; experiment: SPR Biacore T200, 25 C
Outline: as §1

[12] = target: B3; experiment: SPR Biacore T200, 37 C
Outline: as §1

cyno IL-33 N-His [13] = target: B2; experiment: SPR Biacore T200, 37 C
Outline: as §1

[14] = target: B3; experiment: cell-based or functional assay; remark: listed apart in the source
[15] = target: B3; experiment: cell-based or functional assay; remark: listed apart in the source

Binder: B2
EC50 (SEAP reporter OD 620, HEK-BLUE IL-33/IL-1beta cells) [8]: 0.004 nM

Binder: B3
EC50 (SEAP reporter OD 620, HEK-BLUE IL-33/IL-1beta cells) [9]: 0.0055 nM

Next, values leading:

IC50; SEAP reporter (OD 620), HEK-BLUE IL-33/IL-1beta cells, 10 pM hIL-33 [1]: 1.1e-10 M
IC50; SEAP reporter (OD 620), HEK-BLUE IL-33/IL-1beta cells, 5 pM cyno IL-33 (5pM cIL-33-Nhis) [2]: 2.9e-08 M
IC50, IL-33-induced phospho-p38 in primary human basophils, 500 pM hIL-33 [3]: 4e-13 M
IC50 (read off the curve) [4]: ~0.0004 nM
IC50 (read off the curve) [5]: ~0.0004 nM
Ph-p38 MFI at 0.4 nM Ab (500 pM human IL-33, primary basophils) [6]: 88 MFI
Ph-p38 MFI at 2 nM Ab (500 pM human IL-33, primary basophils) [7]: 38 MFI
IC50 (biotinylated cyno IL-33): 77 nM
Maximum Blocking (biotinylated cyno IL-33): 45%
IC50 (biotinylated human IL-33): 0.19 nM
Maximum Blocking (biotinylated human IL-33): 85%
B1: H1M9568N (antibody, IgG1, V domains shown)
VH: QVLLVQSGAEVKKPGATVKVSCKASGSTFTGYYMHWVRQAPGQGLEWMGWINPNNGGTNYAQKFQGRVTMTRDTSISTAYMELSRLRSDDTAVYYCARELRYNWKSWGQGTLVTVSS
VL: EIVLTQSPGTLSLSPGERVTLSCRASQSVGRPYLAWYQQIPGQAPRLLIYGASSRATDIPDRFSGNGSGTDFTLTISRLEPEDFAVYYCQQYDNSPYTFGQGTRLEIK
notes: also called RG3

Kd [10]: 0.549 nM
koff [10]: 0.000438 s⁻¹
kon [10]: 797000 M⁻¹ s⁻¹
t1/2 [10]: 26 min
Kd (cyno IL-33 N-His [11]): 2.17 nM
koff (cyno IL-33 N-His [11]): 0.000528 s⁻¹
kon (cyno IL-33 N-His [11]): 244000 M⁻¹ s⁻¹
t1/2 (cyno IL-33 N-His [11]): 22 min
Kd [12]: 0.359 nM
koff [12]: 0.000626 s⁻¹
kon [12]: 1.74e+06 M⁻¹ s⁻¹
t1/2 [12]: 18 min
Kd (cyno IL-33 N-His [13]): 4.2 nM
koff (cyno IL-33 N-His [13]): 0.0392 s⁻¹
kon (cyno IL-33 N-His [13]): 9.34e+06 M⁻¹ s⁻¹
t1/2 (cyno IL-33 N-His [13]): 0 h
IC50; SEAP reporter (OD 620), HEK-BLUE IL-33/IL-1beta cells, 10 pM hIL-33 [1]: 6.1e-10 M
IC50; IFN-gamma ELISA, primary human NK cells, 260 pM hIL-33 + IL-12 [14]: 2.4e-09 M
IC50, IL-33-induced phospho-p38 in primary human basophils, 500 pM hIL-33 [3]: 3.9e-13 M
IC50 (read off the curve) [15]: ~0.0004 nM
Ph-p38 MFI at 0.4 nM Ab (500 pM human IL-33, primary basophils) [6]: 99 MFI
Ph-p38 MFI at 2 nM Ab (500 pM human IL-33, primary basophils) [7]: 52 MFI
IC50 (biotinylated cyno IL-33): 45 nM
Maximum Blocking (biotinylated cyno IL-33): 25%
IC50 (biotinylated human IL-33): 0.19 nM
Maximum Blocking (biotinylated human IL-33): 80%
B4: H4H9640P (antibody, IgG4, V domains shown)
VH: QVQLQESGPGLVKPSETLSLTCTVSGGSISSYYWSWIRQPPGKGLELIGYIYYSGSTNYNPSLKSRVTISVDTSKNHFSLKLSSVTAADTAVYYCARSQYTSSWYGSFDIWGQGTMVTVSS
VL: DIQMTQSPSSVSASVGDRVTITCRASQGISTWLAWFQQKPGKAPKLLIYAASTLQGGVPSRFSGSGSGPEFTLTISSLQPEDFATYYCQQANSFPWTFGQGTKVEIK
notes: also called RG6
